Data on 1 substance can be found in patent publication US20030017169A1, “Controlled release systems for polymers” (priority 2000, published 2003).

Series [1] in a line: Expected pharmacokinetics of soluble and/or released interferon α in the mouse. The series is classed as in vivo. The note with it: for a 20 g mouse. As for the experimental part: Animal Study. […] Mice used for this study were Balb/c transgenic for the human Interferon α2b gene (Braun et al. 1997, Palleroni et al. 1997). Three mice were used for each formulation. As a, control, one set of mice was injected with 50 μg of soluble human IFN-α001. […] Thus, for a 20 g mouse, the volume of distribution should be ˜8 ml. At 24 hours after administration, given a half-life of 1 hr, we would predict that the serum concentration remaining from a 50 μg dose would be ˜1 pg/ml. In practice, all of the sera of this group of mice were below the detection limit of the ELISA of 40 pg/ml. To test our formulation strategy, we produced 5 different interferon formulations. Human IFN-α2b, human IFN-α001, human IFN-α012, and murine IFN-α formulations were allowed to mature for 18 hr. A fifth formulation contained human IFN-α001 and matured for 3 hours prior to centrifugation. The human IFN-α formulations were produced at 0.4 mg/ml protein with 25 mM NaOAc pH 5.4, 6 mM Tris pH 8.0, 50 mM NaCl, 1.25% glycerol, with particle formation intitiated by addition of N-propanol to 16%. […] Serum was collected at 24 hours post injection, mice in all groups recieving a human interferon had immunoreactive interferon in their serum as determined by ELISA (PBL Multispecies ELISA # 41105). […] No interferon was detected at the 96 hours or 168 hours time points.

The conditions of series [2]: mouse; expected from published studies and own work; cited from earlier work.

Read-outs that look alike come from different tables or passages of the source.

interferon α: the volume of distribution in series [1] is approximately 8 mL; in series [2], “about 0.4 ml/g”.
